What was measured:
[1] = Conversion of 3-methylcrotonyl-CoA and ADP into 3-methylcrotonic acid and ATP, phosphate butyryltransferase from Enterococcus faecalis with butyrate kinases; assay type: biochemical; conditions: 4 mM 3-methylcrotonyl-CoA, 4 mM ADP, 0.2 mg/ml each enzyme, 20 min, 30° C.
Description: (§1) The enzymatic assays were conducted in a total reaction volume of 0.2 ml.
(§2) The standard reaction mixture contained:
(§3) 50 mM potassium phosphate buffer pH 7.5
4 mM 3-methylcrotonyl-CoA
(§4) 0.2 mg/ml of purified phosphate butyryltransferase from Enterococcus faecalis
(§5) 0.2 mg/ml of purified butyrate kinase from Lactobacillus casei or Geobacillus sp.
A series of controls was performed in parallel (Assays C-H Table 10).
Assays were then incubated for 20 min with shaking at 30° C.
(§6) After an incubation period, the reactions were stopped by heating the reaction medium 4 min at 90° C. The samples were centrifuged, filtered through a 0.22 μm filter and the clarified supernatants were transferred into a clean vial for further analysis. The consumption of ADP and 3-methylcrotonyl-CoA and the formation of ATP and 3-methylcrotonic acid and free coenzyme A (CoA-SH) were followed by HPLC analysis according to the methods described in Example 10 and Example 12.

[2] = Conversion of 3-hydroxyisovaleryl-CoA and ADP into 3-hydroxyisovaleric acid and ATP, phosphate butyryltransferase from Enterococcus faecalis with butyrate kinases; assay type: biochemical; conditions: 4 mM 3-hydroxyisovaleryl-CoA, 4 mM ADP, 0.2 mg/ml each enzyme, 20 min, 30° C.
Description: as §1, §2, §3
4 mM 3-hydroxyisovaleryl-CoA
as §4, §5
A series of controls were performed in parallel (Assays C-H Table 5).
The assays were then incubated for 20 min with shaking at 30° C.
as §6, with “3-hydroxyisovaleryl-CoA,” for “3-methylcrotonyl-CoA”, “3-hydroxyisovaleric” for “3-methylcrotonic”, “10.” for “10 and Example 12.”

B1: phosphate butyryltransferase from Enterococcus faecalis: phosphate butyryltransferase (EC 2.3.1.19) from Enterococcus faecalis MTUP9, Uniprot A0A038BNC2 (protein, listed as Enterococcus faecalis)
chain: MITVSIAGGSQPEILQLVKKALKEAEQPLQFIVFDTNENLDTENLWKYVHCSDEATVAQEAVSLVATGQAQILLKGIIQTHTLLKEMLKSEHQLKNKPILSHVAMVELPAGKTFLLTDCAMNIAPTQATLIEIVENAKEVAQKLGLHHPKIALLSAAENFNPKMPSSVLAKEVTAHFNGQQEATVFGPLSLDLATSEEAVAHKRYSGPIMGDADILVVPTIDVGNCLYKSLTLFGHAKVGGTIVGTKVPVVLTSRSDSTESKFHSLRFAMRQV
modifications: MTUP9
notes: phosphate butyryltransferase (EC 2.3.1.19) from Enterococcus faecalis MTUP9, Uniprot A0A038BNC2
production of 3-methylcrotonic acid and ATP [1]: significant production of 3-methylcrotonic acid without simultaneous generation of ATP
production of 3-hydroxyisovaleric acid and ATP [2]: significant production of 3-hydroxyisovaleric acid, without simultaneous generation of ATP

Source: patent publication US10676765B2, “Methods for producing 3-hydroxy-3-methylbutyric acid” (Global Bioenergies, priority 2015, dated 2020)
